Literature values as cited in paper PMC9836085.

Columns and labels:
[1] = target: Rab6 (Drosophila melanogaster) (UniProt O18334)
[2] = target: Sas6 (Drosophila melanogaster) (UniProt Q9VAC8)
Sequence of UniProt Q9VAC8 (Q9VAC8 whole entry): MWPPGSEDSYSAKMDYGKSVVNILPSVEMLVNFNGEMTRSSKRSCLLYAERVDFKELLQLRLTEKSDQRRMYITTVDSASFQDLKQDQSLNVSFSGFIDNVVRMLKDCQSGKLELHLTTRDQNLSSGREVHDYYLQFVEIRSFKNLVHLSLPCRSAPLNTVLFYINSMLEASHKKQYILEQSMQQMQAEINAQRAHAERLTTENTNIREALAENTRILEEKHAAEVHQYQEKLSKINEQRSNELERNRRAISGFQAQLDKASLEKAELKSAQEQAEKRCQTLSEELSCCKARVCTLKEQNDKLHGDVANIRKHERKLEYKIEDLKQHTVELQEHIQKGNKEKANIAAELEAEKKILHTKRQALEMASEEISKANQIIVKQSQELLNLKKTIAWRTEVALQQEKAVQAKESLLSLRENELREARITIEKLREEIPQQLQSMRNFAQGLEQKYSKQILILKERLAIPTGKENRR

Sequence of UniProt O18334 (O18334 whole entry): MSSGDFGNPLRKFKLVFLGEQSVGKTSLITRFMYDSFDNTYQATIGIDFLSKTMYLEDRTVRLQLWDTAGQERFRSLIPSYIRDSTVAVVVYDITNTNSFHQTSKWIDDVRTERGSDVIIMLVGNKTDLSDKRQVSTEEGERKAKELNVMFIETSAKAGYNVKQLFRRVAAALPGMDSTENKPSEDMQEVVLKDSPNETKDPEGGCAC

Kd [1]: 2.24 µM | Kd [2]: 0.047 µM
Substance: Gorab (from UniProt Q8IQQ4)
